This assay has as its target GFP-GABAB1b. As to the kind of experiment: FRET or BRET; two-photon FLIM; GFP donor, t-dimer DsRed acceptor; transfected rat spinal neurons in culture, fixed; treated with baclofen (10^-9 to 10^-3 M) or GABA (10^-4 M), with exogenous fibulin-2 protein (25 or 50 nM), co-transfected fibulin-2 or anti-fibulin-2 siRNA; mean FRET efficiency ± …. (In general: Bioluminescence resonance energy transfer reports proximity on the nanometre scale.)

B1: DsRed-GABAB2 (receptor)
chain: WTRGAPRPPPSSPPLSIMGLMPLTKEVAKGSIGRGVLPAVELAIEQIRNESLLRPYFLDLRLYDTECDNAKGLKAFYDAIKYGPNHLMVFGGVCPSVTSIIAESLQGWNLVQLSFAATTPVLADKKKYPYFFRTVPSDNAVNPAILKLLKHFRWRRVGTLTQDVQRFSEVRNDLTGVLYGEDIEISDTESFSNDPCTSVKKLKGNDVRIILGQFDQNMAAKVFCCAFEESMFGSKYQWIIPGWYEPAWWEQVHVEANSSRCLRRSLLAAMEGYIGVDFEPLSSKQIKTISGKTPQQFEREYNSKRSGVGPSKFHGYAYDGIWVIAKTLQRAMETLHASSRHQRIQDFNYTDHTLGKIILNAMNETNFFGVTGQVVFRNGERMGTIKFTQFQDSREVKVGEYNAVADTLEIINDTIRFQGSEPPKDKTIILEQLRKISLPLYSILSALTILGMIMASAFLFFNIKNRNQKLIKMSSPYMNNLIILGGMLSYASIFLFGLDGSFVSEKTFETLCTVRTWILTVGYTTAFGAMFAKTWRVHAIFKNVKMKKKIIKDQKLLVIVGGMLLIDLCILICWQAVDPLRRTVERYSMEPDPAGRDISIRPLLEHCENTHMTIWLGIVYAYKGLLMLFGCFLAWETRNVSIPALNDSKYIGMSVYNVGIMCIIGAAVSFLTRDQPNVQFCIVALVIIFCSTITLCLVFVPKLITLRTNPDAATQNRRFQFTQNQKKEDSKTSTSVTSVNQASTSRLEGLQSENHRLRMKITELDKDLEEVTMQLQDTPEKTTYIKQNHYQELNDILSLGNFTESTDGGKAILKNHLDQNPQLQWNTTEPSRTCKDPIEDINSPEHIQRRLSLQLPILHHAYLPSIGGVDASCVSPCVSPTASPRHRHVPPSFRVMVSGL
In turn, B1 came in with an FRET efficiency (baclofen 10^-6 M) of 51.2% and an FRET efficiency (baclofen 10^-6 M, fibulin-2 co-transfected) of 53%.

Values taken from paper PMC7378325.
